Assay results reported in patent US20230174655A1 (published 2023).
Where a chain is given by its changes, count along the chain named. In names and notes the source's numbering stands.

T1: FcγRIIb extracellular domain with C-terminal His tag (human, UniProt P31994 43-217)
T1 construct: extracellular domain; also called FcRIIb; FcgRIIb; not shown: His tag at the C terminus
T1 sequence (looked up): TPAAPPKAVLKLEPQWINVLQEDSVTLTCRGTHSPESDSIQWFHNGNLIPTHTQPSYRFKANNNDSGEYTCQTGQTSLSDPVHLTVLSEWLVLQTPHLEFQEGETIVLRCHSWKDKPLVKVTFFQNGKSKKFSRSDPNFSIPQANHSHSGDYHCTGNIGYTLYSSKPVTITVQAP

T2: FcγRIIa type R extracellular domain with C-terminal His tag (human, UniProt P12318 34-217)
T2 chain: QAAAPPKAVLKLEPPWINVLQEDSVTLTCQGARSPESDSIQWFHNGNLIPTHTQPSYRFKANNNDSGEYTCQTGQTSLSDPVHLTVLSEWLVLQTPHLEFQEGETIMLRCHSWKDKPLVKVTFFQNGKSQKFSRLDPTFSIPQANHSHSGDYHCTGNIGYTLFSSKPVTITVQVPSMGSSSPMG

B1: IL6R-2B251/IL6R-L (antibody, human IgG1, kappa)
heavy: QVQLQESGPGLVKPSETLSLTCAVSGHSISHDHAWSWVRQPPGEGLEWIGFISYSGITNYNPSLQGRVTISRDNSKNTLYLQMNSLRAEDTAVYYCARSLARTTAMDYWGEGTLVTVSSASTKGPSVFPLAPSSKSTSGGTAALGCLVKDYFPEPVTVSWNSGALTSGVHTFPAVLQSSGLYSLSSVVTVPSSSLGTQTYICNVNHKPSNTKVDKKVEPKSCDKTHTCPPCPAPDLLGGDSVFLFPPKPKDTLMISRTPEVTCVVVDVSHEDPEVKFNWYVDGVEVHNAKTKPREEQDNSTYRVVSVLTVLHQDWLNGKEYKCKVSNKALPAPIEKTISKAKGQPREPQVYTLPPSRDELTKNQVSLTCLVKGFYPSDIAVEWESNGQPENNYKTTPPVLDSDGSFFLYSKLTVDKSRWQQGNVFSCSVMHEALHNHYTQESLSLSP
light: not shown
notes: alteration printed: B233D/P238D/Y296D; also called ILGR-2B261/IL6R-L; copies: 2 + 2
B2: IL6R-BF201/IL6R-L (antibody, human IgG1, kappa)
heavy: B1 heavy with G239D, P273G, D298Y, A332R
light: not shown
notes: alteration printed: E233D/G237D/P238D/P271G/A330R; copies: 2 + 2
B3: IL6R-BF195/IL6R-L (antibody, human IgG1, kappa)
heavy: B1 heavy with L236Y, G239D, H270D, P273G, K328A, A332K
light: not shown
notes: copies: 2 + 2
B4: IL6R-BF192/IL6R-L (antibody, human IgG1, kappa)
heavy: B1 heavy with H270D, P273G, A332K
light: not shown
notes: alteration printed: B233D/P238D/H268D/P271G/Y296D/A330K; copies: 2 + 2
B5: IL6R-BF180/IL6R-L (antibody, human IgG1, kappa)
heavy: B1 heavy with D235E, G239D, P273G, D298Y, A332K
light: not shown
notes: alteration printed: G237D/P238D/P271G/A330K; copies: 2 + 2
B6: IL6R-BF132/IL6R-L (antibody, human IgG1, kappa)
heavy: B1 heavy with D298Y, K328A, A332K
light: not shown
notes: alteration printed: B233D/P236D/K326A/A330K; copies: 2 + 2
B7: IL6R-BF189/IL6R-L (antibody, human IgG1, kappa)
heavy: B1 heavy with D235E, G239D, H270D, P273G, D298Y, K328A, A332K
light: not shown
notes: alteration printed: G237D/P238D/H268D/P271D/K326A/A330K; copies: 2 + 2
B8: IL6R-BF200/IL6R-L (antibody, human IgG1, kappa)
heavy: B1 heavy with L236Y, G239D, P273G, D298Y, K328D, A332R
light: not shown
notes: copies: 2 + 2
B9: IL6R-BF185/IL6R-L (H chain SEQ ID NO 98) (antibody, human IgG1, kappa)
heavy: B1 heavy with L236Y, P273G, D298Y, K328A, A332K
light: not shown
notes: alteration printed: B233D/L234Y/P238D/P271G/K326A/A330K; also called IL6R-BF138/IL6R-L; copies: 2 + 2
B10: IL6R-BF203/IL6R-L (antibody, human IgG1, kappa)
heavy: B1 heavy with D235E, G239D, P273G, D298Y, A332R
light: not shown
notes: copies: 2 + 2
B11: IL6R-BF176/IL6R-L (antibody, human IgG1, kappa)
heavy: B1 heavy with D298Y, K328D, A332K
light: not shown
notes: alteration printed: B233D/P238D/K326D/A330K; also called IL6R-BF175/IL6R-L; copies: 2 + 2
B12: IL6R-BF085/IL6R-L (H chain SEQ ID NO 72) (antibody, human IgG1, kappa)
heavy: B1 heavy with D235E, D298Y, K328A, A332K
light: not shown
notes: alteration printed: P238D/K326A/A330K; also called IL6R-BF086/IL6R-L; copies: 2 + 2
B13: IL6R-BF190/IL6R-L (antibody, human IgG1, kappa)
heavy: B1 heavy with D235E, G239D, H270D, P273G, D298Y, A332K
light: not shown
notes: alteration printed: G237D/P238D/H268D/P271G/A330K; copies: 2 + 2
B14: IL6R-BF187/IL6R-L (antibody, human IgG1, kappa)
heavy: B1 heavy with D235E, L236Y, P273G, D298Y, K328A, A332K
light: not shown
notes: alteration printed: L234Y/P238D/P271G/K326A/A330K; copies: 2 + 2
B15: IL6R-BF194/IL6R-L (antibody, human IgG1, kappa)
heavy: B1 heavy with L236Y, G239D, H270D, P273G, D298Y, K328A, A332K
light: not shown
notes: alteration printed: B233D/L234Y/G237D/P238D/H268D/P271G/K326A/A330K; copies: 2 + 2
B16: IL6R-BF197/IL6R-L (antibody, human IgG1, kappa)
heavy: B1 heavy with L236Y, G239D, H270D, P273G, K328D, A332K
light: not shown
notes: alteration printed: B233D/L234Y/G237D/P238D/H268D/P271G/Y296D/Y326D/A330K; copies: 2 + 2
B17: IL6R-BF147/IL6R-L (antibody, human IgG1, kappa)
heavy: B1 heavy with D235E, L236Y, G239D, D298Y, K328A, A332K
light: not shown
notes: alteration printed: L234Y/G237D/P238D/K326A/A330K; copies: 2 + 2
B18: IL6R-BF196/IL6R-L (antibody, human IgG1, kappa)
heavy: B1 heavy with D235E, L236Y, H270D, P273G, D298Y, K328A, A332K
light: not shown
notes: alteration printed: L234Y/P236D/H258D/P271G/K326A/A330K; copies: 2 + 2
B19: IL6R-BF206/IL6R-L (antibody, human IgG1, kappa)
heavy: B1 heavy with P273G, D298Y, A332R
light: not shown
notes: alteration printed: BB233D/P238D/P271G/A330R; copies: 2 + 2
B20: IL6R-BF202/IL6R-L (antibody, human IgG1, kappa)
heavy: B1 heavy with D235E, G239D, P273G, D298Y, K328A, A332R
light: not shown
notes: alteration printed: G237D/P238D/P271G/K326A/A330R; copies: 2 + 2
B21: IL6R-2B253/IL6R-L (antibody, human IgG1, kappa)
heavy: B1 heavy with D298Y, V325M
light: not shown
notes: alteration printed: B233D/P238D/V323M; copies: 2 + 2

target: T1, FcγRIIb extracellular domain with …; experiment: SPR (Biacore), antibody captured, FcgR analyte
Description: (§1) In the table, SEQ ID NO refers to the SEQ ID NO of the H chain of the evaluated variant, and alteration refers to the alteration introduced into IL6R-B3 (SEQ ID NO: 40). […] Furthermore, KD(IIaR)/KD(IIb) and KD(IIaH)/KD(IIb) in the table respectively represent the value obtained by dividing the KD value of each variant for FcγRIIaR by the KD value of each variant for FcγRIIb, and the value obtained by dividing the KD value of each variant for FcγRIIaH by the KD value of each variant for FcγRIIb. KD(IIb) of the parent polypeptide/KD(IIb) of the altered polypeptide refers to the value obtained by dividing the KD value of the parent polypeptide for FcγRIIb by the KD value of each variant for FcγRIIb.
(§2) Kinetic analyses for calculating the KD values of each altered antibody for FcγR were performed according to the following method. First, antibodies of interest were captured onto the above-mentioned sensor chips, and an Fcγ receptor diluted with the running buffer was allowed to interact. The Biacore™ Evaluation Software was used to globally fit the measured results to the obtained sensorgram using the 1:1 Langmuir binding model, and the association rate constant ka (L/mol/s) and the dissociation rate constant kd (1/s) were calculated; and from those values the dissociation constants KD (mol/L) were calculated.

Row | Binder | Kd
1 | B1 | 10000 nM
2 | B2 | 40000 nM
3 | B3 | 50000 nM

Target: T2, FcγRIIa type R extracellular domain …
Experiment: SPR (Biacore), antibody captured, FcgR analyte
Description: as §1, §2

Row | Binder | Kd
4 | B4 | 2800 nM
5 | B5 | 1200 nM
6 | B6 | 8000 nM
7 | B7 | 1400 nM
8 | B8 | 630 nM
9 | B9 | 26000 nM
10 | B10 | 990 nM
11 | B11 | 69000 nM
12 | B12 | 97 nM
13 | B13 | 1100 nM
14 | B14 | 2800 nM
15 | B15 | 820 nM
16 | B16 | 880 nM
17 | B17 | 830 nM
18 | B18 | 30 nM
19 | B19 | 3100 nM
20 | B20 | 12 nM
21 | B21 | 50 nM
22 | B2 | 840 nM
23 | B3 | 910 nM

target: T3, FcγRIIIa type V extracellular domain with C-terminal His tag (human, UniProt P08637 17-208); experiment: SPR (Biacore), antibody captured, FcgR analyte
T3 construct: extracellular domain; also called FcIIIaV; FcgRIIIaV; not shown: His tag at the C terminus
Description: as §1, §2

T3 sequence (P08637 17-208 F176V): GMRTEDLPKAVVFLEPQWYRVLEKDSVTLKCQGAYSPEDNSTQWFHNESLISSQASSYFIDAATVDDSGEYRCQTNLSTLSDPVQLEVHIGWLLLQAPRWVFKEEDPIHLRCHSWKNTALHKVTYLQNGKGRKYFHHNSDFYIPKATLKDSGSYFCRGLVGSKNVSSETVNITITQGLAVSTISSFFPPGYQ

Row | Binder | Kd
24 | B5 | 7000 nM
25 | B6 | 50000 nM
26 | B18 | 5100 nM
27 | B19 | 6900 nM
28 | B21 | 5000 nM
29 | B3 | 3100 nM
